Measured values: patent US7351555B2, “Mouse cytokine receptor Zcytor16” (ZymoGenetics, Inc., priority 2001, dated 2008)

Columns and labels:
BaF3 wild type cells = test: Alamar Blue proliferation assay, IL-TIF activity; assay type: cell-based, murine
[1] = test system: BaF3/CRF2-4/zcytor11 cells; test: Alamar Blue proliferation assay, IL-TIF activity; assay type: cell-based, murine; conditions: 3 days + Alamar Blue
Experimental: BaF3/CRF2-4/zcytor11 cells were spun down and washed in the complete media, described in Example 7A above, but without mIL-3 (hereinafter referred to as “mIL-3 free media”). The cells were spun and washed 3 times to ensure the removal of the mIL-3. Cells were then counted in a hemacytometer. Cells were plated in a 96-well format at 5000 cells per well in a volume of 100 μl per well using the mIL-3 free media.
Proliferation of the BaF3/CRF2-4/zcytor11 cells was assessed using IL-TIF-CEE protein diluted with mIL-3 free media to 50, 10, 2, 1, 0.5, 0.25, 0.13, 0.06 ng/ml concentrations. 100 μl of the diluted protein was added to the BaF3/CRF2-4/zcytor11 cells. The total assay volume is 200 μl. The assay plates were incubated at 37° C., 5% CO2 for 3 days at which time Alamar Blue (Accumed, Chicago, Ill.) was added at 20 μl/well. Plates were again incubated at 37° C., 5% CO2 for 24 hours. Alamar Blue gives a fluourometric readout based on number of live cells, and is thus a direct measurement of cell proliferation in comparison to a negative control. […] Plates were read on the Fmax™ plate reader (Molecular Devices Sunnyvale, Calif.) using the SoftMax™ Pro program, at wavelengths 544 (Excitation) and 590 (Emmission). […] The response, as measured, was approximately 15-fold over background at the high end of 50 ng/ml down to a 2-fold induction at the low end of 0.06 ng/ml.

BaF3/CRF2-4 cells = test: Alamar Blue proliferation assay, IL-TIF activity; assay type: cell-based, murine
K-562 cells = test: K-562 cytotoxicity assay (MTT); assay type: cell-based, human; conditions: 72 h
Experimental: The K-562 cell line (CRL-243, ATCC) has attained widespread use as a highly sensitive in vitro target for cytotoxicity assays. K-562 blasts are multipotential, hematopoietic malignant cells that spontaneously differentiate into recognizable progenitors of the erythrocytic, granulocytic and monocytic series (Lozzio, B B et al., Proc. Soc. Exp. Biol. Med. 166: 546-550, 1981).
K562 cells were plated at 5,000 cells/well in 96-well tissue culture clusters (Costar) in DMEM phenol-free growth medium (Life Technologies) supplemented with pyruvate and 10% serum (HyClone). Next day, human recombinant IL-TIF (Example 19), BSA control or retinoic acid (known to be cytotoxic to K562 cells) were added. Seventy-two hours later, the vital stain MTT (Sigma, St Louis, Mo.), a widely used indicator of mitochondrial activity and cell growth, was added to the cells at a final concentration of 0.5 mg/ml. […] is converted to a purple formazan derivative by mitochondrial dehydrogenases. Four hours later, converted MMP was solubilized by adding an equal volume of acidic, isopropanol (0.04N HCl in absolute isopropanol) to the wells. Absorbance was measured at 570 nm, with background subtraction at 650 nm. In this experimental setting, absorbance reflects cell viability. Results shown in Table 12 are expressed as % cytotoxicity.

MES 13 cells = test: IL-TIF activation of SRE/STAT luciferase reporter mini-gene in MES 13 cells; assay type: cell-based, murine; conditions: 4 h
Experimental: MES 13 cells (ATCC No. CRL-1927) were plated at 10,000 cells/well in 96-well tissue culture clusters (Costar) in DMEM growth medium (Life Technologies) supplemented with pyruvate and 10% serum (HyClone). Next day, the medium was switched to serum free DMEM medium by substituting 0.1% BSA (Fraction V; Sigma) for serum. This medium also contained the adenoviral construct KZ136 (below) that encodes a luciferase reporter mini-gene driven by SRE and STAT elements, at a 1000:1 multiplicity of infection (m.o.i.), i.e. 1000 adenoviral particles per cell. After allowing 24 h for the incorporation of the adenoviral construct in the cells, the media were changed and replaced with serum-free media. Human recombinant IL-TIF with or without a recombinant Zcytor16-Fc4 fusion was added at the indicated final concentration in the well (as described in Table 11, below). Dilutions of both the IL-TIF and Zcytor16-Fc4 were performed in serum-free medium. 0.1% BSA was added for a basal assay control. 4 h later, cells were lysed and luciferase activity, denoting activation of the reporter gene, was determined in the lysate using an Luciferase Assay System assay kit (Promega) and a Labsystems Luminoskan luminometer (Labsystems, Helsinki, Finland). Activity was expressed as luciferase units (LU) in the lysate.
The construction of the adenoviral KZ136 vector was as follows. The original KZ136 vector is disclosed in Poulsen, L K et al. J. Biol. Chem. 273:6228-6232, 1998. The CMV promoter/enhancer and SV40 pA sequences were removed from pACCMV.pLpA (T. C. Becker et al., […] 43:161-189, 1994.) and replaced with a linker containing Asp718/KpnI and HindIII sites (oligos ZC13252 (SEQ ID NO:26) and ZC13453 (SEQ ID NO:27)). The STAT/SRE driven luciferase reporter cassette was exised from vector KZ136 (Poulsen, L K et al., supra.).) as a Asp718/KpnI-HindIII fragment and inserted into the adapted pAC vector. Recombinant KZ136 Adenovirus was produced by transfection with JM17 Adenovirus into 293 cells as described in T. C. Becker et al. supra.). Plaque purified virus was amplified and used to infect cultured cells at 5-50 pfu/cell 12-48 hours before assay. Luciferase reporter assays were performed as described in 96 well microplates as per Poulsen, L K et al., supra.).

[2] = test system: BaF3/mZcytor16-MPL receptor cell line; test: Proliferation assay with BaF3/mZcytor16-MPL chimera cells; assay type: cell-based, murine; conditions: in the presence of the correct receptor complex
Experimental: Using standard methods described herein, cells expressing a BaF3/mZcytor16-MPL chimera (wherein the extracellular domain of the mouse Zcytor16 (e.g., amino acids 24 to 230 of SEQ ID NO:38 or SEQ ID NO:48) is fused in frame to the intracellular signaling domain of the mpl receptor) are tested for proliferative response in the presence of IL-TIF. Such cells serve as a bioassay cell line to measure ligand binding of monomeric or homodimeric mouse Zcytor16 receptors. In addition, BaF3/mZcytor16-MPL chimera cells transfected with an additional heterodimeric cytokine receptor subunit can be assessed for proliferative response in the presence of IL-TIF. […] Transfection of the BaF3/MPL-mZcytor16 cell line with and additional MPL-class II cytokine receptor fusion that signals in the presence of the IL-TIF ligand, such as CRF2-4, determines which heterodimeric cytokine receptor subunits are required for mouse Zcytor16 receptor signaling. Use of MPL-receptor fusions for this purpose alleviates the requirement for the presence of an intracellular signaling domain for the mouse Zcytor16 receptor.
Each independent receptor complex cell line is then assayed in the presence of IL-TIF and proliferation measured using routine methods (e.g., Alamar Blue assay). […]

B1: IL-TIF: human IL-TIF polypeptide (SEQ ID NO:15) containing C-terminal GluGlu (EE) tag, purified from BHK cells (protein, listed as Homo sapiens)
chain: MAALQKSVSSFLMGTLATSCLLLLALLVQGGAAAPISSHCRLDKSNFQQPYITNRTFMLAKEASLADNNTDVRLIGEKLFHGVSMSERCYLMKQVLNFTLEEVLFPQSDRFQPYMQEVVPFLARLSNRLSTCHIEGDDLHIQRNVQKLKDTVKKLGESGEIKAIGELDLLFMSLRNACI
modifications: C-terminal EE tag
proliferation in response to IL-TIF-CEE (BaF3 wild type cells): did not proliferate
proliferative response (induction) ([1]; IL-TIF-CEE 0.06 ng/ml): ~2 fold
proliferative response over background ([1]; IL-TIF-CEE 50 ng/ml): approximately 15 fold
proliferation in response to IL-TIF-CEE (BaF3/CRF2-4 cells): did not proliferate
% Cytotoxicity (K-562 cells; 100 ng/ml): 16.2%
% Cytotoxicity (K-562 cells; 300 ng/ml): 32%
LU w/o zcytoR16 (MES 13 cells; IL-TIF 0.03 ng/ml): 105 ± 3 LU
LU w/o zcytoR16 (MES 13 cells; IL-TIF 0.3 ng/ml): 108 ± 4 LU
LU w/o zcytoR16 (MES 13 cells; IL-TIF 3 ng/ml): 134 ± 8 LU
LU w/o zcytoR16 (MES 13 cells; IL-TIF 30 ng/ml): 188 ± 16 LU
LU w/o zcytoR16 (MES 13 cells; IL-TIF 300 ng/ml): 258 ± 21 LU
increase of proliferation over background [2]: ≥ 5 fold
